Data from US20250002594A1 (SHANGHAI EPIMAB BIOTHERAPEUTICS, published 2025).
One block for each binder: values may come before it.

Assays:
recombinant human CD132 [1] = biological target: T1, recombinant human CD132 (human, UniProt P31785 23-262, limits assumed); assay: hybridoma supernatant screening, method not described
T1 construct: also called IL-2Rγ
T1 sequence (looked up): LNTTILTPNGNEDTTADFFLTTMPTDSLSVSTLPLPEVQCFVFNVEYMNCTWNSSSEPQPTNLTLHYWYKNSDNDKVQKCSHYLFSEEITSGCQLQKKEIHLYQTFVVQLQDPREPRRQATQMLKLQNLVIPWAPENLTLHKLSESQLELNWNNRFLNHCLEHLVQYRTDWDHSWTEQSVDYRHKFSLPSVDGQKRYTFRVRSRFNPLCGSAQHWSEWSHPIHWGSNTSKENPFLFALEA

recombinant human CD132 [2] = biological target: T1, recombinant human CD132; assay: ELISA, plate coated with 1 µg/mL recombinant human CD132
Method: (§1) Plates were washed three times with PBST, added HRP labeled anti-human IgG secondary antibody and incubated at RT for 15 minutes, then washed 5 times with PBST. For color development, 100 μl of tetramethylbenzidine (TMB) chromogenic solution was added to each well, the reaction was quenched by 1 N HCl and absorbance at 450 nm was measured on a microplate reader. Binding signals were plotted against antibody concentration with GraphPad Prism 6.0 software and EC₅₀ values were calculated accordingly.

[3] = biological target: T2, human CD122 on HEK293 cells (human, UniProt P14784 27-551); assay: Flow cytometry (MFI) on HEK293 cells overexpressing human CD122; the table gives no unit, the axis is Fab conc.(nM)
T2 construct: whole, on cells; also called cell surface CD122
T2 sequence (looked up): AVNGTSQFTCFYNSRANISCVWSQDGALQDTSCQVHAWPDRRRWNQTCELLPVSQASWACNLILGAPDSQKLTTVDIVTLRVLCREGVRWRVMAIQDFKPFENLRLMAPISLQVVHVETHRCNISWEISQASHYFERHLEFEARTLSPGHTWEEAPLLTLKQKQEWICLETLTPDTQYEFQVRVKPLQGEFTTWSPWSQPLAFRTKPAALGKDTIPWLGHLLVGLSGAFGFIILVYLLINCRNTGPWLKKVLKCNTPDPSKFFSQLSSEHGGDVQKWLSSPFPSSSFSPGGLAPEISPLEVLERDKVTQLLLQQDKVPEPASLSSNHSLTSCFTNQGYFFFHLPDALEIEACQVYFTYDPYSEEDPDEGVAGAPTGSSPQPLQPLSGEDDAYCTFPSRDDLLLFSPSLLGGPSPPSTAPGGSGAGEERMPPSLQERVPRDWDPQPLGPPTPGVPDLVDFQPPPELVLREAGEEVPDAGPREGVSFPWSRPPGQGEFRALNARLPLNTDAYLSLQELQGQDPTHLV
Method: (§2) Briefly, a 96-well plate was seeded with 3×10⁵ cells each well, centrifuged at 400 g for 5 minutes and supernatants discarded, then added 100 μl of antibody (5× serial dilutions, 0.0064 to 100 nM) each well and gently mixed. After 60 minutes of incubation at 4° C., plates were washed several times to remove excess antibodies. Secondary fluorochrome-conjugated goat anti-human IgG antibody (Jackson Immunoresearch, Cat No. 109-606-098) was then added and incubated with cells at 4° C. for 20 minutes. After another round of centrifugation and washing, cells were resuspended in assay buffer (1X PBS containing 2% FBS) for reading on a flow-cytometer. Median Fluorescence Intensity (MFI) readouts were plotted against antibody concentration and analyzed with GraphPad Prism 6.0 software.

[4] = biological target: T3, human CD132 on HEK293 cells (human, UniProt P31785 23-369); assay: Flow cytometry (MFI) on HEK293 cells overexpressing human CD132; the table gives no unit, the axis is Fab conc.(nM); the curve has no upper plateau in the range shown
T3 construct: whole, on cells; also called cell surface CD132
T3 sequence (looked up): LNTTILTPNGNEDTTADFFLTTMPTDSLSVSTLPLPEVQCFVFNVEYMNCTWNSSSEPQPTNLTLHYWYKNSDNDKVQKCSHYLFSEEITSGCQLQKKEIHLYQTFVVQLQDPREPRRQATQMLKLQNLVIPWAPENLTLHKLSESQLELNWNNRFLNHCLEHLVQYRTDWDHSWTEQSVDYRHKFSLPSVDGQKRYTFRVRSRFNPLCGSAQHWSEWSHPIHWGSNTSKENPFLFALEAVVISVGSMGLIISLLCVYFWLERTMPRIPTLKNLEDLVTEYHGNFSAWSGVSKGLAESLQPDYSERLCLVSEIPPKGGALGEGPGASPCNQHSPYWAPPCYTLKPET
Method: as §2

[5] = biological target: T4, CD122/CD132 complex on HEK-Blue IL-2 cells (UniProt P14784 27-551; P31785 23-369, limits assumed); assay: cell-based or functional assay
T4 sequence (looked up) 1: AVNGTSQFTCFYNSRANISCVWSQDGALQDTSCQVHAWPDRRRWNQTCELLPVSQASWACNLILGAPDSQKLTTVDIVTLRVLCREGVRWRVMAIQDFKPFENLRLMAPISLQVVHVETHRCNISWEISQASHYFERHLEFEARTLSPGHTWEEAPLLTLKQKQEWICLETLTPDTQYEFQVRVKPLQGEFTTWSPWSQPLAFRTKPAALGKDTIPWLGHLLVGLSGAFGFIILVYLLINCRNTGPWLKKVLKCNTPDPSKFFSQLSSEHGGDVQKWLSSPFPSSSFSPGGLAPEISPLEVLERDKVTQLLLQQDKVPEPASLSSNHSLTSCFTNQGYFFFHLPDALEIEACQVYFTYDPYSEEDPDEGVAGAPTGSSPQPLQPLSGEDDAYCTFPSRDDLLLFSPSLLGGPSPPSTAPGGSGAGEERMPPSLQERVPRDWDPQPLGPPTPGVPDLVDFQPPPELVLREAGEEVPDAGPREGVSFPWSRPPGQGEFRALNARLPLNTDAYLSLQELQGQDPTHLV
T4 sequence (looked up) 2: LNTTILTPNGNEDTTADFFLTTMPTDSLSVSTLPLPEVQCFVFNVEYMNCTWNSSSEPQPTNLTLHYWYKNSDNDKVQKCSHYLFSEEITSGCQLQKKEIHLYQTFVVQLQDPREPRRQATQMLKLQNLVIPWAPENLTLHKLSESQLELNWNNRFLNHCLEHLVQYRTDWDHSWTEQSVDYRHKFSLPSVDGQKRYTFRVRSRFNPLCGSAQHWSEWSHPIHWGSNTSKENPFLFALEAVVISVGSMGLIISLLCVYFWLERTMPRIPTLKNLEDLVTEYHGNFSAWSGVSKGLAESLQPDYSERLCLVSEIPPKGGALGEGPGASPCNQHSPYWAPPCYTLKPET

recombinant human CD122 [6] = biological target: T5, recombinant human CD122 (human, UniProt P14784 27-239, limits assumed); assay: ELISA, plate coated with 1 µg/mL recombinant human CD122
T5 construct: also called IL-2Rβ
T5 sequence (looked up): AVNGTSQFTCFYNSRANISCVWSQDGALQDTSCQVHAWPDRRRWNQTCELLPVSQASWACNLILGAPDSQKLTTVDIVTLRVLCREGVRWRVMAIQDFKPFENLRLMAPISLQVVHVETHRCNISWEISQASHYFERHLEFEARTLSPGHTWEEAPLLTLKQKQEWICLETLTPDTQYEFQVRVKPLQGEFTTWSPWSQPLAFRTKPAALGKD
Method: as §1

recombinant human CD122 [7] = biological target: T5, recombinant human CD122; assay: hybridoma supernatant screening, method not described
[8] = biological target: T3, human CD132 on HEK293 cells; assay: Flow cytometry (Median-APC) on HEK293/CD132 cells; the box gives no unit, the axis is Ab conc.(nM); the curve has no upper plateau in the range shown
Method: as §2

recombinant human CD122 [9] = biological target: T5, recombinant human CD122; assay: GCI (WAVEsystem), FIT-Ig captured by anti-human IgG Fc, antigen in solution
Method: (§3) Binding affinity and kinetics constants of humanized CD122/CD132 FIT-Ig were determined using a label-free biosensor on WAVEsystem (Creoptix AG, Switzerland) by grating-coupled interferometry (GCI). Briefly, a PCP WAVEchip (Creoptix AG) was pre-immobilized with goat anti-human IgG Fc antibody to a density of 3830 pg/mm² by amine coupling, and used to capture humanized CD122/CD132 FIT-Ig generated from Example 3.2.1 to a density of ˜90 pg/mm², then exposed to recombinant human/cyno CD122 or CD132 serially diluted (3× dilutions from 200 nM to […] for human CD122, human CD132 and cyno CD132, respectively; and from 1000 nM to 1.37 nM for cyno CD122) in 1X HBS-EP+ buffer (Cytiva, Cat No. BR100669) by injection at 60 μL/min for 250s to assess association, followed by 1200s dissociation. After each round of association and dissociation, WAVEchip surface was regenerated by subject to pH 1.5 Glycine-HCl buffer injection at 60 μL/min for 120s. Sensorgrams were recorded at 25° C., the data were analyzed on WAVEcontrol (Creoptix AG) and double referenced by subtracting the signals from blank injections and the reference channel. A Langmuir 1:1 model was used for data fitting.

recombinant cyno CD132 = biological target: T6, recombinant cyno CD132 (cynomolgus, UniProt A0A2K5VGJ6 23-262); assay: as above
T6 construct: also called cynomolgus CD132
T6 sequence: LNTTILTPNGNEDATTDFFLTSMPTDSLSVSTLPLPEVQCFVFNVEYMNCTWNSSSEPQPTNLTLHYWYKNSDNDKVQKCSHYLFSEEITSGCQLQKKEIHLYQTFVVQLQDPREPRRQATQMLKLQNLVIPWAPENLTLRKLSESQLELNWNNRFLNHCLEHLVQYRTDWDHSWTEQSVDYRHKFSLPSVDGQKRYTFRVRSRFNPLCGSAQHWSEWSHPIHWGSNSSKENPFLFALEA
Method: as §3

recombinant cyno CD122 = biological target: T7, recombinant cyno CD122 (cynomolgus, UniProt Q38J85 27-239, limits assumed); assay: as above
T7 construct: also called cynomolgus CD122
T7 sequence (looked up): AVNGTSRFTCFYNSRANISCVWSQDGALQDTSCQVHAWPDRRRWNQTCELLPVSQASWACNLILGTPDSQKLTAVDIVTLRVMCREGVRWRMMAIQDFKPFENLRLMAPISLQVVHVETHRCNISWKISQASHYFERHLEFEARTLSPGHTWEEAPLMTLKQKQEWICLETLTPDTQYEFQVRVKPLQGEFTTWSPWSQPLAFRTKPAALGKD
Method: as §3

recombinant human CD132 [10] = biological target: T1, recombinant human CD132; assay: as above
Method: as §3

[11] = biological target: T2, human CD122 on HEK293 cells; assay: Flow cytometry (Median-APC) on HEK293/CD122 cells; the box gives no unit, the axis is Ab conc.(nM)
Method: as §2

binding result (recombinant human CD132 [1]): binds
B1: CD132-mAb17 (antibody, V domains shown)
VH: EVQLQQPGSELVRPGASVKLSCKASGYTFTSYWMHWMKQRPGQGLEWIGHIYLGGGATNYAEKFRSKATLTADTSSSTAYMQLSSLTSEDSAVYYCTRSQPYYYGMDSWGQGTSVTVSS
VL: DIQMTQTPSSLSASLGDRVTISCRASQDISNYLNWYQQKPDGTVKLLIYYKSRLHSGVPSRFSGSGSGTEYSLTINNLEQEDFATYFCHQGHTIPFTFGSGTKLEIK
notes: Mouse hybridoma antibody; also called clone #CD132-mAb17; mAb CD132-mAb17

EC50 (recombinant human CD132 [2]): 0.662 nM
EC50 [3]: 2.2 nM
EC50 [4]: 75.6 nM
EC50 from SEAP reporter gene assay [5]: 0.125 nM
EC50 (recombinant human CD122 [6]): 0.324 nM
B2: FIT2019-86b (bispecific antibody, human IgG1, kappa, L234A L235A)
chain 1: not shown
chain 2: QVQLQQSGPELVKPGASVKMSCKASGYRFSDYVISWVKQRSGQGLEWIGEIYPGDGNTYYNEMFKGRATLTADKSPNTAYMKLSSLTSEDSALYFCARGSYTYDNYAMDFWGQGTSVTVSSASTKGPSVFPLAPSSKSTSGGTAALGCLVKDYFPEPVTVSWNSGALTSGVHTFPAVLQSSGLYSLSSVVTVPSSSLGTQTYICNVNHKPSNTKVDKKVEPKSC
chain 3: DIQMTQTPSSLSASLGDRVTISCRASQDISNYLNWYQQKPDGTVKLLIYYKSRLHSGVPSRFSGSGSGTEYSLTINNLEQEDFATYFCHQGHTIPFTFGSGTKLEIKRTVAAPSVFIFPPSDEQLKSGTASVVCLLNNFYPREAKVQWKVDNALQSGNSQESVTEQDSKDSTYSLSSTLTLSKADYEKHKVYACEVTHQGLSSPVTKSFNRGEC
notes: FIT-Ig with mouse V domains of CD122-mAb77 (outer Fab) and CD132-mAb17 (inner Fab), human constant domains; also called anti-CD122/CD132 FIT2019-86b

binding result (recombinant human CD122 [7]): binds
B3: CD122-mAb77 (antibody, V domains shown)
VH: QVQLQQSGPELVKPGASVKMSCKASGYRFSDYVISWVKQRSGQGLEWIGEIYPGDGNTYYNEMFKGRATLTADKSPNTAYMKLSSLTSEDSALYFCARGSYTYDNYAMDFWGQGTSVTVSS
VL: DVLMTQTPLSLPVSLGDQASISCRSSQNIVHSNGNTYLEWYLQKPGQSPKLLIYKVSNRFSGVPDRFSGSGSGTDFTLKISRVEAEDLGLYYCFQGSHIPWTFGGGTKLEIK
notes: Mouse hybridoma antibody; also called clone #CD122-mAb77

EC50 [8]: 17.8 nM
EC50 from SEAP reporter gene assay [5]: 0.19 nM
Kd (recombinant human CD122 [9]): 17.1 nM
koff (recombinant human CD122 [9]): 0.00107 s⁻¹
kon (recombinant human CD122 [9]): 62700 M⁻¹ s⁻¹
Kd (recombinant cyno CD132): 10.6 nM
koff (recombinant cyno CD132): 0.000286 s⁻¹
kon (recombinant cyno CD132): 27000 M⁻¹ s⁻¹
Kd (recombinant cyno CD122): 91.6 nM
koff (recombinant cyno CD122): 0.00697 s⁻¹
kon (recombinant cyno CD122): 76100 M⁻¹ s⁻¹
Kd (recombinant human CD132 [10]): 9.02 nM
koff (recombinant human CD132 [10]): 0.000339 s⁻¹
kon (recombinant human CD132 [10]): 37500 M⁻¹ s⁻¹
EC50 [11]: 5.27 nM
B4: huFIT2019-86b-51 (bispecific antibody, human IgG1, kappa, L234A L235A)
chain 1: not shown
chain 2: EVQLVQSGAEVKKPGASVKVSCKASGYTFTDYVISWVRQATGQGLEWMGEIYPGDAQTYYNEMFKGRVTMTRDTSISTAYMELSSLRSEDTAVYYCARGSYTYDNYAMDFWGQGTTVTVSSASTKGPSVFPLAPSSKSTSGGTAALGCLVKDYFPEPVTVSWNSGALTSGVHTFPAVLQSSGLYSLSSVVTVPSSSLGTQTYICNVNHKPSNTKVDKKVEPKSC
chain 3: not shown
notes: also called huFIT2019-8b-51
